The values that follow come from patent US20060280751A1.

Some results are limits rather than exact numbers.

The target of assay [1] is envelope glycoprotein gp120 of HIV-1 laboratory strain 89.6 (HIV-1 89.6 strain) (UniProt Q73372). In words: cell-based or functional assay.
The target in assay [2] is envelope glycoprotein gp120 of HIV-1 laboratory strain AD8 (HIV-1 AD8 strain). Nature of the assay: cell-based or functional assay.
Assay [3] deals with envelope glycoprotein gp120 of HIV-1 laboratory strain IIIB (HIV-1 IIIB strain). Nature of the assay: cell-based or functional assay.
In assay [4] the target is envelope glycoprotein gp120 of HIV-1 laboratory strain MN (HIV-1 MN strain) (UniProt P05877). Nature of the assay: cell-based or functional assay.
Assay [5] concerns the target envelope glycoprotein gp120 of HIV-1 laboratory strain SF2 (HIV-1 SF2 strain). In words: cell-based or functional assay.
The target of assay [6] is V3/β-Gal from patients' HIV-1 clones with IGPARAF in the middle portion of V3 region (HIV-1 from patients). Nature of the assay: sandwich ELISA: V3/β-Gal (200 ng/ml) captured by anti-β-Gal antibody, 1 µg/ml KD-247. For orientation: An ELISA detects its analyte on a solid surface through an enzyme-linked reagent.
For assay [7], the target named is V3/β-Gal from patients' HIV-1 clones with IGPGRAF in the middle portion of V3 region (HIV-1 from patients). The assay is described as above.
In assay [8] the target is V3/β-Gal from patients' HIV-1 clones with IGPGRAI in the middle portion of V3 region (HIV-1 from patients). Described as above.
The target of assay [9] is V3/β-Gal from patients' HIV-1 clones with IGPGRAL in the middle portion of V3 region (HIV-1 from patients). Described as above.
In assay [10] the target is V3/β-Gal from patients' HIV-1 clones with IGPGRSF in the middle portion of V3 region (HIV-1 from patients). The description is as above.
Assay [11] addresses V3/β-Gal from patients' HIV-1 clones with IGPGRTF in the middle portion of V3 region (HIV-1 from patients). Described as above.
Assay [12] has as its target V3/β-Gal from patients' HIV-1 clones with VGPGRAL in the middle portion of V3 region (HIV-1 from patients). Described as above.

For the substance “KD-247, a humanized monoclonal antibody to PND region”, the Neutralizing activity IC50 (p24 antigen in PBMC culture) was 0.2 µg/mL in assay [1]; 5 µg/mL in assay [2]; greater than 50 µg/mL in assay [3]; 0.1 µg/mL in assay [4]; 1 µg/mL in assay [5]. Besides, the Neutralizing activity IC90 (p24 antigen in PBMC culture) in assay [1] is 2.5 µg/mL; in assay [2] it was 10 µg/mL; in [3] it was greater than 50 µg/mL; in assay [4] it was 1 µg/mL; in assay [5], 5 µg/mL. Moreover, the relative binding (% of V3/β-Gal from MN strain) in [6], in assay [7], in assay [8], in assay [9], in assay [10] and in [11] was greater than 100% in each case. Besides, the relative binding (% of V3/β-Gal from MN strain) in [12] is greater than 100%.
